From article PMC7105497

Biological target: human EWI-2 wild type with FLAG-tag (FSEC assay) (human) (UniProt Q969P0)
Assay: SEC; fluorescence-detection size-exclusion chromatography (FSEC): GFP-tagged CD9 and FLAG-tagged EWI-2 co-expressed in HEK293T cells, solubilised in 1% digitonin, supernatant run on Superose 6 Increase in 10 mM HEPES pH 7.0, 150 mM NaCl, 0.1% digitonin; GFP fluorescence monitored

UniProt Q969P0, sequence (Q969P0 28-613): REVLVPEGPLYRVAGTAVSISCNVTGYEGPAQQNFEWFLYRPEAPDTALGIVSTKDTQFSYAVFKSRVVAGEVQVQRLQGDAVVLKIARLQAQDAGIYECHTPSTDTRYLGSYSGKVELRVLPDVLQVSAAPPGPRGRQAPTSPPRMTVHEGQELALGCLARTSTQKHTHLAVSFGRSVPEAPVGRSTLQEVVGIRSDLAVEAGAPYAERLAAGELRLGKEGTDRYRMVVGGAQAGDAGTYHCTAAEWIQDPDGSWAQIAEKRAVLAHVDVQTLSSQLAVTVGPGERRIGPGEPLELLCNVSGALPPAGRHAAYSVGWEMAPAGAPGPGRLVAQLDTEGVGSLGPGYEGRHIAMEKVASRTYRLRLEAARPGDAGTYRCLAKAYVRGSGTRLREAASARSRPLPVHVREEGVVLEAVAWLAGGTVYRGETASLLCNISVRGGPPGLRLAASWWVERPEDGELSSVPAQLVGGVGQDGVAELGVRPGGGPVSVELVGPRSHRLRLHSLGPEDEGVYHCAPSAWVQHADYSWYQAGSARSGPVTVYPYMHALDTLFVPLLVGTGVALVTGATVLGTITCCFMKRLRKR

stoichiometry N (EWI-2 per CD9): 2
Substance: CD9-CD53LEL (CD9 with its LEL region exchanged with that of CD53)
